B1: unfolded outer membrane protein X (uOmpX) (natural protein, E. coli, UniProt P0A917 24-171, looked up)
chain: ATSTVTGGYAQSDAQGQMNKMGGFNLKYRYEEDNSPLGVIGSFTYTEKSRTASSGDYNKNQYYGITAGPAYRINDWASIYGVVGVGYGKFQTTEYPTYKHDTSDYGFSYGAGLQFNPMENVALDFSYEQSRIRSVDVGTWIAGVGYRF
B2: FkpA (full-length, dimeric form) (natural protein, E. coli, UniProt P45523 26-270, looked up)
chain: AEAAKPATAADSKAAFKNDDQKSAYALGASLGRYMENSLKEQEKLGIKLDKDQLIAGVQDAFADKSKLSDQEIEQTLQAFEARVKSSAQAKMEKDAADNEAKGKEYREKFAKEKGVKTSSTGLVYQVVEAGKGEAPKDSDTVVVNYKGTLIDGKEFDNSYTRGEPLSFRLDGVIPGWTEGLKNIKKGGKIKLVIPPELAYGKAGVPGIPPNSTLVFDVELLDVKPAPKADAKPEADAKAADSAKK

Experiments:
[1] = target: B2; experiment: AUC
[2] = target: unfolded β-barrel assembly machine A (uBamA) (UniProt P0A940 21-810); experiment: AUC
[3] = target: B1; experiment: cell-based or functional assay

| binding result [1] | binding result [2] | decrease of the OmpX folding rate into diC11PC LUVs with FkpA [3] | Binder |
| --- | --- | --- | --- |
| binds |  |  | B1 |
|  | binds | 3 fold | B2 |

From publication PMC10031210 (Protein Science : A Publication of the Protein Society, 2023)
